Our source for the reduction in binding affinity against the unmutated trimer values is publication PMC6007033.

The target of assay [1] is BG505.T332N.SOSIP.664.113C.429GCG gp140 trimer (HIV-1 BG505). The assay can be described thus: SPR. In general terms: SPR reads the build-up and loss of mass on a sensor chip optically.
For assay [2], the target named is BG505.T332N.SOSIP.664.113C.431GCG gp140 trimer (HIV-1 BG505). Briefly: SPR.

As for two-domain soluble CD4 (receptor), the reduction in binding affinity against the unmutated trimer in assay [1] and in assay [2] was 3 log each time.
